# B1: ATTA2 (dsDNA)
# DNA 1: TAGTGTGATTGAATTAAAGGGCAGG
# DNA 2: CCTGCCCTTTAATTCAATCACACTA
# Biological target: PHOX2B-20A (UniProt Q99453 98-314)
# Experiment: NMR
# Chain of PHOX2B-20A (Q99453 98-314): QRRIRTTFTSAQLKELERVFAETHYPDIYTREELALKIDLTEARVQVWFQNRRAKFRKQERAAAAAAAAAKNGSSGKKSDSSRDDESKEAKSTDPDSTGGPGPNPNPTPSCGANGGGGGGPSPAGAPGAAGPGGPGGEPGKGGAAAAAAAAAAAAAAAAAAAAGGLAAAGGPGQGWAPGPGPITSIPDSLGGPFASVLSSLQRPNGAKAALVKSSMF
binder,measurement,value
B1,binding result,binds
